Reference: US20220089765A1, “CD31 COMPETITORS AND USES THEREOF” (ENCEFA, priority 2019, published 2022)

Tests used:
[1] = tested on: Dextran Sulfate Sodium (DSS)-induced colitis mouse model; assay: DSS-induced colitis mouse model, colon length; assay type: in vivo, mice; settings: 15 mg/kg iv when DSS treatment began; 3% DSS for 5 days
Description: Administration of DSS causes human ulcerative colitis-like pathologies due to its toxicity to colonic epithelial cells, which results in compromised mucosal barrier function. Clinical observations similar to human pathologies, such as weight loss, diarrhea and occult blood in stool, are commonly observed in the DSS model. Moreover, diminution of the colon's length is characteristic of this model.
Experimental colitis was induced in mice by giving drinking water ad libitum containing 3% (w/v) DSS for 5 days, while control mice received tap water only. Test compounds were intravenously administered (15 mg/kg) when DSS treatment began. Mice were sacrificed 9 days after the beginning of DSS treatment.

[2] = tested on: Experimental Autoimmune Encephalomyelitis (EAE) mouse model; assay: EAE mouse model of multiple sclerosis, clinical score; assay type: in vivo, mice; settings: 15 mg/kg iv at symptom onset (10 days after MOG injection) and at day 20
Description: Multiple sclerosis (MS) is a progressive inflammatory and demyelinating disease of the human central nervous system (CNS) in which an important role for the immune system in the pathogenesis of the disease is suspected (Lassmann, 2008. J Neurol Sci. 274(1-2):45-7). EAE is an induced disease in mice that affects the central nervous system and constitutes a model for human MS. After a subcutaneous injection of an emulsion with a Complete Freund's Adjuvant (CFA) mixed with oligodendrocyte membrane proteins like myelin oligodendrocyte glycoprotein (MOG), an immune response starts in the periphery and, within 2 weeks, causes inflammation in the CNS. In the same time, we can observe, a progressive ascending paralysis (tail to hindlimb to forelimb). To determine whether B08 anti-CD38 antibody could have beneficial effect in this disease, we injected this antibody (15 mg/kg at symptom onset (10 days after MOG injection) and at day 20).
Animals were anesthetized via inhalation with isoflurane (15 min). Mouse were immunized by subcutaneous injection of an emulsion containing 100 μg MOG peptide 35-55 in Complete Freund's Adjuvant and 500 μg HKMT (Heat-killed Mycobacterium tuberculosis) on day 0. Two hours later, animals received an intraperitoneal injection of 500 ng of pertussis toxin on day 0 and day 2. […]
After immunization, animals were daily monitored for weight and clinical symptoms.

[3] = tested on: human peripheral blood mononuclear cells (PBMCs); assay: IL-10 release from human PBMCs in vitro (ELISA); assay type: cell-based; settings: PBMCs from 3 healthy donors; 10 μg/ml; LPS 500 ng/mL and interferon-γ 1B 100 ng/mL; 24 hours
Protocol: 3 healthy volunteers (Donor 1: Donor 2: Donor 3) served as blood donors. Venous blood (5 mL) was collected into heparinized tubes and immediately processed. Briefly, blood was diluted 1/1 in pre-warmed RPMI 1640 medium. PBMCs were isolated using gradient centrifugation in Ficoll solution (Sigma; 300×g, 30 min). Isolated PBMCs were re-suspended in 1 volume of pre-warmed RPMI 1640 medium and centrifuged again (300×g, 30 min). PBMCs were re-suspended in RPMI 1640 medium supplemented with 10% human serum (Sigma-Aldrich) at a concentration of 10^7 cells per mL. Cells were seeded in 96 well microplate (100 μL per well). Test compounds (10 μg/ml), LPS (500 ng/mL) and interferon-γ 1B (100 ng/mL) were added to PBMCs culture immediately after plating. After 24 hours, cell culture supernatants were collected and frozen at −80° C. for further processing.
IL-10 levels in cell culture supernatants were assayed using an ELISA human IL-10 kit (Ozyme®) according to the indications for use specified by the manufacturer.

[4] = tested on: dopaminergic neurons of the right substantia nigra pars compacta; assay: 6-OHDA mouse model, number of DA (TH+) neurons; assay type: in vivo, mice
Protocol: We aimed at determining whether B08 or D06 anti-CD38 antibodies were neuroprotective in vivo against neurodegeneration induced by oxidative stress. Mouse were administered with 6-hydroxydopamine (6-OHDA) in the right striatum. Since 6-OHDA is an analogue of dopamine, it is transported in dopaminergic neurons through the dopamine transporter, resulting in a specific degeneration and loss of dopaminergic neurons of the right substantia nigra pars compacta. It has been extensively used as a test system for novel symptomatic agents and for assessment of neuroprotective and neurorepair strategies (Galindo et al., 2014. In Kostrzewa (Ed.), Handbook of neurotoxicity (1st Ed., pp. 639-651). New York: Springer-Verlag). Since 6-OHDA is injected unilaterally in the right striatum, left striatum remains unaffected and each mouse is its own control.
Two in vivo mouse models were used: the 6-OHDA mouse model and the MPTP mouse model. For the 6-OHDA mouse model, the intoxication protocol was based on the unilateral stereotaxic intrastriatal injection of 6-OHDA in the right striatum. Intracerebral or intravenous injections of treatments were made either the day before the surgical stereotaxic procedure, concomitantly with 6-OHDA during the surgical stereotaxic procedure, or two days after 6-OHDA injection. Animals were sacrificed 8 days after the surgical stereotaxic procedure.
For unilateral 6-OHDA mouse model, animals were anesthetized using Chloral hydrate (400 mg/kg, i.p.) and placed into a stereotactic frame adapted to mice. The injection was performed using a Hamilton syringe at the following coordinates: AP: […], ML: […], DV: […] (corresponding to the atlas of Franklin and Paxinos, 1997). A total volume of 2.5 μL containing or not 5 μg of 6-OHDA diluted in PBS in the presence or the absence of test treatments was injected. The needle was left in place for 10 min after the injection before retraction.
Mice were sacrificed by cervical dislocation, and beheaded to collect brain and blood samples. The brain was fixed in a paraformaldehyde solution (4%) during 1 day before being soaked in sucrose (30%) during 2 days and then froze at −80° C. for further analysis.
Each brain was sliced using a freezing microtome at −30° C. The thickness of each slice was 20 μm. The slicing was done around the substantia nigra (80 slices from slice 51 to 63 according to Allen Mouse Brain).
Slices were then washed out in PBS and incubated with anti-Tyrosine Hydroxylase to stain dopaminergic neurons (Abcam®) during 2 days, at 4° C., with agitation. Slices were incubated with corresponding secondary antibody in the presence of DAPI (Sigma Aldrich®) to stain cell's nuclei during 2 hours at room temperature, and mounted on gelatin-coated slides.
The slices were imaged using a Nikon TE2000 U equipped with a Hamamatsu ORCE-ER camera or with a Zeiss Axio Vert.A1 equipped with an axiocam 503 mono camera. Image analysis was done using Image J software or Zen (Zeiss®).

B1: Clone B08: anti-human CD38 antibody, HCVR SEQ ID NO: 33 and LCVR SEQ ID NO: 39 (antibody, V domains shown)
VH: EVQLVESGGSLVKPGGSLRLSCAASGFTFSNYYMNWVRQAPGKGLEWISSISGSSRSIYYADFVKGRFTISRDNAKNSLYLQMNSLRAEDTAVYYCVRSSDDYYYDYGMDVWGRGTLVTVSS
VL: QSVLTQPASVSGSPGQSITISCAGTSSDVGGSYSVSWYQQHPGKAPKLMIYDDSNRPSGVSNRFSGSKSGNTASLTISGLQAEDEADYYCSSYTDYSTRVFGGGTKL
modifications: HCVR B08; LCVR B08
[1]
  diminution of the colon's length: statistically significantly repressed
[2]
  clinical score compared with PBS-injected mice: significantly reduced
[3]
  IL-10 release: statistically significantly increased
[4]; 0.1 mg/kg injected intracerebrally concomitantly with 6-OHDA
  protection of dopaminergic neurons of the right substantia nigra pars compacta: statistically significantly protected
[4]; 15 mg/kg iv one day before 6-OHDA injection
  neuroprotective effect in 6-OHDA model: neuroprotective effect was also observed
[4]; 15 mg/kg iv two days after 6-OHDA injection
  neuroprotective activity in 6-OHDA model when degeneration is ongoing: strong neuroprotective activity
